This note sets out measurements from US20210285024A1 (CENTRE NATIONAL DE LA RECHERCHE SCIENTIFIQUE CNRS, published 2021).

The assay has as its target T1, recombinant human Vasohibin-2 (VASH2) (Homo sapiens, UniProt Q86V25 1-355, limits assumed).
T1 construct: Produced in E. coli (pET-28a(+)/pGEX) and purified by IMAC and ion exchange
Put plainly: recombinant complex purified and used as detyrosinase; no direct binding assay described.

T1 sequence (Q86V25 whole entry): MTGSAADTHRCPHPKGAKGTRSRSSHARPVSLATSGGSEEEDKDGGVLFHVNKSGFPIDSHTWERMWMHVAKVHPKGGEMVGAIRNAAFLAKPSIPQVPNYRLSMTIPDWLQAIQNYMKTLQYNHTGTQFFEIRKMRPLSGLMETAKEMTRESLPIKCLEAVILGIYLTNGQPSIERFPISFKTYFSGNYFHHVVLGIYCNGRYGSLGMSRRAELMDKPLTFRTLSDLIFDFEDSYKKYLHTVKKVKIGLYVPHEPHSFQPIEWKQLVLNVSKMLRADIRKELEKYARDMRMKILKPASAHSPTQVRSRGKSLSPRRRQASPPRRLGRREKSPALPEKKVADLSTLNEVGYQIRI

B1: Small vasohibin-binding protein (SVBP) (other)
chain: MDPPARKEKTKVKESVSRVEKAKQKSAQQELKQRQRAEIYALNRVMTELEQQQFDEFCKQMQPPGE
notes: Coexpressed with VASH1 or VASH2
As for B1, the binding result is given as “binds”.
